# From paper PMC8238635
# B1: dsRNA (long ssRNA paired to short ssRNA) (dsRNA)
# RNA 1: UUUUCAUGCUACGCGUAGCAUGCUACGCGUAGCAUG
# RNA 2: CAUGCUACGCGUAGCAUGCUACGCGUAG
# Key:
# Nsp8 [1] = target: T1, Nsp8 (SARS-CoV-2 (taxid 2697049), UniProt P0DTD1 3943-4140); assay: SEC-MALS-SAXS; 1:1 complex, high affinity; settings: protein: recombinant; tags: N-terminal His6-TEV, cleaved; label: 32P in EMSA; none in SEC; single strand
# Nsp8 [2] = target: T1, Nsp8; assay: SEC-MALS-SAXS; settings: protein: recombinant; tags: N-terminal His6-TEV, cleaved
# Nsp8;Nsp12 (RdRp) = Nsp8;Nsp12 (RdRp) (SARS-CoV-2 (taxid 2697049);SARS-CoV-2 …, UniProt P0DTD1;P0DTD1 3943-4140;4393-5324, |); assay: SEC-MALS-SAXS; excess RNA; low or nonexistent binding; settings: protein: recombinant;recombinant, tags: N-terminal His6-TEV, cleaved;N-terminal His6-TEV, copies: 1;1
# Nsp8 [3] = target: T1, Nsp8; assay: EMSA; split bands; settings: protein: recombinant, tags: N-terminal His6-TEV, cleaved, single strand
binder,measurement,setting,value
UUUUCAUGCUACGCGUAGCAUGCUACGCGUAGCAUG (ssRNA) [long ssRNA (36 bases)],binding result,Nsp8 [1],binds
B1,binding result,Nsp8 [2],binds
same,binding result,Nsp8;Nsp12 (RdRp),no binding
CAUGCUACGCGUAGCAUGCUACGCGUAG (ssRNA) [short ssRNA (28 bases)],binding result,"Nsp8 [3]; label: 32P in EMSA, none in SEC",binds
CAUGCUACGCGUAGCAUGCUACGCGUAGCAUG (ssRNA) [long ssRNA without poly-U 5' end],binding result,Nsp8 [3]; label: 32P,binds
